Substitutions are numbered along the chain they refer to.
Columns and labels:
GPBP1 eAT-hook (eAT) [1] = target: T1, GPBP1 eAT-hook (eAT) (Homo sapiens, UniProt D4PHA4 38-80); assay: MST
T1 chain: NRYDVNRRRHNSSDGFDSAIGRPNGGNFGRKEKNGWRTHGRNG

GPBP1 eATmut = target: T2, GPBP1 eATmut (Homo sapiens, UniProt D4PHA4 38-80, R59D); assay: MST
T2 chain: T1 chain with R22D

PTOV1 eATmut [2] = target: T3, PTOV1 eATmut (Homo sapiens, UniProt Q86YD1 1-43, R20D;R22D); assay: MST
T3 chain: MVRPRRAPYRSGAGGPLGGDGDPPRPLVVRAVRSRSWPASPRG

GPBP1 eAT-hook (eAT) [3] = target: T1, GPBP1 eAT-hook (eAT); assay: MST
GPBP1 eAT-hook (eAT) [4] = target: T1, GPBP1 eAT-hook (eAT); assay: MST competition
PTOV1 eATmut [5] = target: T3, PTOV1 eATmut; assay: EMSA

B1: rDNA En (MST) (dsDNA)
DNA 1: TCTTTTTTTTTTTTTTTCTTTTTTCCTCC
DNA 2: GGAGGAAAAAAGAAAAAAAAAAAAAAAGA
GPBP1 eAT-hook (eAT) [1]
  apparent K (half saturation): 7 ± 1.7 µM
GPBP1 eATmut
  binding result: no binding
PTOV1 eATmut [2]
  binding result: no binding

## AGUUCCAUGAUGUUUUCAAACUCUAUUACCUACAUUAUUUGAAC (structured_RNA) [RNA1]
GPBP1 eAT-hook (eAT) [3]
  apparent K (half saturation): 378 ± 18 nM
GPBP1 eAT-hook (eAT) [4]
  apparent K (half saturation): 373 ± 19 nM

## GAGAAACCGUGUAAACAAAACAUAACUGAGAGG (structured_RNA) [RNA2]
GPBP1 eAT-hook (eAT) [3]
  apparent K (half saturation): 938 ± 92 nM

B2: rDNA En (gel shift) (dsDNA)
DNA 1: TGGATCTTTTTTTTTTTTTTTCTTTTTTCCTCCA
DNA 2: TGGAGGAAAAAAGAAAAAAAAAAAAAAAGATCCA
PTOV1 eATmut [5]
  binding result: no binding

Source: paper PMC4615771
